Assay results reported in patent US20220363757A1 (SYMPHOGEN A S, published 2022).
Substitutions are numbered along the chain they refer to. Each block holds one binder with its values, some of them ahead of it.

Tests used:
Test in all cases: SPR, Fab over captured mutant LAG-3-Fc;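 further: fc fusion variants captured on anti-human IgG Fc sensor, Fab injected with association then dissociation phases, KD obtained from Langmuir one-to-one fit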
[1] = molecular target: T1, human LAG-3 domain 1-2 Fc fusion, point mutation #80 R163A (human, UniProt P18627 23-266)
T1 construct: not shown: human IgG1 Fc, AA P101-K330
T1 sequence: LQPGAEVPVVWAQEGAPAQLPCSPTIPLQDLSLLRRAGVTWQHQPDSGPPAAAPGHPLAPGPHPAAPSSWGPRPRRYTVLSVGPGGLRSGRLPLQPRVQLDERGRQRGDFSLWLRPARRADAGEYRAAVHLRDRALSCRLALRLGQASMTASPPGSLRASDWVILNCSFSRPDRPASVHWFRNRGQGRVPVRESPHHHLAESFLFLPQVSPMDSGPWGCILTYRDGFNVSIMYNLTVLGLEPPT

[2] = molecular target: T2, human LAG-3 domain 1-2 Fc fusion, point mutation #9 D52A (human, UniProt P18627 23-266)
T2 construct: not shown: human IgG1 Fc, AA P101-K330
T2 sequence: T1 sequence with D30A, A141R

[3] = molecular target: T3, human LAG-3 domain 1-2 Fc fusion, point mutation #7 P49A (human, UniProt P18627 23-266)
T3 construct: not shown: human IgG1 Fc, AA P101-K330
T3 sequence: T1 sequence with P27A, A141R

[4] = molecular target: T4, human LAG-3 domain 1-2 Fc fusion, point mutation #12 R57A (human, UniProt P18627 23-266)
T4 construct: not shown: human IgG1 Fc, AA P101-K330
T4 sequence: T1 sequence with R35A, A141R

[5] = molecular target: T5, human LAG-3 domain 1-2 Fc fusion, point mutation #79 S159A (human, UniProt P18627 23-266)
T5 construct: not shown: human IgG1 Fc, AA P101-K330
T5 sequence: T1 sequence with S137A, A141R

[6] = molecular target: T6, human LAG-3 domain 1-2 Fc fusion, point mutation #47 T100A (human, UniProt P18627 23-266)
T6 construct: not shown: human IgG1 Fc, AA P101-K330
T6 sequence: T1 sequence with T78A, A141R

[7] = molecular target: T7, human LAG-3 domain 1-2 Fc fusion, point mutation #25 H78A (human, UniProt P18627 23-266)
T7 construct: not shown: human IgG1 Fc, AA P101-K330
T7 sequence: T1 sequence with H56A, A141R

[8] = molecular target: T8, human LAG-3 domain 1-2 Fc fusion, point mutation #68 Q128A (human, UniProt P18627 23-266)
T8 construct: not shown: human IgG1 Fc, AA P101-K330
T8 sequence: T1 sequence with Q106A, A141R

[9] = molecular target: T9, human LAG-3 domain 1-2 Fc fusion, point mutation #67 R127A (human, UniProt P18627 23-266)
T9 construct: not shown: human IgG1 Fc, AA P101-K330
T9 sequence: T1 sequence with R105A, A141R

KD mutant/KD wild type [1]: 0.6 fold
KD mutant/KD wild type [2]: 0.7 fold
KD mutant/KD wild type [3]: 0.8 fold
KD mutant/KD wild type [4]: 0.7 fold
KD mutant/KD wild type [5]: 0.7 fold
KD mutant/KD wild type [6]: 0.6 fold
KD mutant/KD wild type [7]: 0.7 fold
KD mutant/KD wild type [8]: 1 fold
KD mutant/KD wild type [9]: 0.9 fold
B1: Fab fragment of antibody 15011 (Fab, V domains shown, not shown: a dimerising Fc or GST)
VH: EVQLLESGGGLVQPGGSLRLSCAASGFDFRSYAMMWVRQAPGKGLEWVGGINGEVGGSNTYYAPAVKGRATISRDNSKNTLYLQMNSLRAEDTAVYYCVKGAGACGICNDDIDAWGQGTLVTVSS
VL: SYELTQDPAVSVALGQTVRITCSGAGSYAGSYYYGWHQQKPGQAPVTVIYDNDKRPSNIPDRFSGSSSGNTASLTITGAQAEDEADYYCGSTNDNDDGGLFGSGTKVTVLG
notes: monomeric Fab made by GingisKHAN digestion of the IgG1

KD mutant/KD wild type [1]: 2.5 fold
KD mutant/KD wild type [2]: 1.7 fold
KD mutant/KD wild type [3]: 1.7 fold
KD mutant/KD wild type [4]: 1.1 fold
KD mutant/KD wild type [5]: 0.7 fold
KD mutant/KD wild type [6]: 3.9 fold
KD mutant/KD wild type [7]: 0.9 fold
KD mutant/KD wild type [8]: 0.7 fold
KD mutant/KD wild type [9]: 0.6 fold
B2: Fab fragment of antibody 15532 (Fab, V domains shown, not shown: a dimerising Fc or GST)
VH: QVQLQQWGAGLLRPSETLSLTCAVYGESFSGYYWNWIRQPPGKGLEWIGEINHSGSTNYNPSLKSRVTISVDTSKTQFSLKLSSVTAADTAVYYCARGWDLLDWNDYWNEYWGQGTLVTVSS
VL: EIVLTQSPATLSLSPGERATLSCRASQSVSSYLAWYQQKPGQAPRLLIYDASNRATGIPARFSGSGSGTDFTLTISSLEPEDFAVYYCQQRSNWPLTFGGGTKVEIKR
notes: as for B1

binding result [1]: no binding (tested: 300 nM)
binding result [2]: no binding (tested: 300 nM)
binding result [3]: no binding (tested: 300 nM)
KD mutant/KD wild type [4]: 0.6 fold
KD mutant/KD wild type [5]: 0.9 fold
binding result [6]: no binding (tested: 300 nM)
KD mutant/KD wild type [7]: 0.4 fold
KD mutant/KD wild type [8]: 0.8 fold
KD mutant/KD wild type [9]: 0.9 fold
B3: Fab fragment of antibody 15431 (Fab, V domains shown, not shown: a dimerising Fc or GST)
VH: QVQLQQSGPGLVKPSQTLSLTCAISGDSVSSNSAAWNWIRQSPSRGLEWLGRTYYRSKWYNDYAVSVKSRITINPDTSKNQFSLQLNSVTPEDTAVYYCARDDDWNDFDYWGQGTLVTVSS
VL: B2 VL
notes: as for B1

binding result [1]: no binding (tested: 300 nM)
binding result [2]: no binding (tested: 300 nM)
binding result [3]: no binding (tested: 300 nM)
KD mutant/KD wild type [4]: 0.8 fold
KD mutant/KD wild type [5]: 0.3 fold
binding result [6]: no binding (tested: 300 nM)
KD mutant/KD wild type [7]: 0.5 fold
KD mutant/KD wild type [8]: 0.9 fold
KD mutant/KD wild type [9]: 0.5 fold
B4: Fab fragment of antibody 15572 (Fab, V domains shown, not shown: a dimerising Fc or GST)
VH: QLQLQESGPGLVKPSETLSLTCTVSGDSISSSSYYWGWIRQPPGKGLEWIGSIFYSGNTYYNPSLKSRVTISVDTSKNQFSLKLSSVTAADTAVYYCAREDDFLTDYYGAFDIWGQGTMVTVSS
VL: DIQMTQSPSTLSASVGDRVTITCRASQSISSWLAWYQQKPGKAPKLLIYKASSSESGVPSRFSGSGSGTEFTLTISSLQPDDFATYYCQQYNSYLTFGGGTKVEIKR
notes: as for B1
